The NTF2 design screens of Basanta et al. (2020)

Experiment: protease stability score; higher = more stable; yeast display proteolysis, trypsin and chymotrypsin;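 note: relative to predicted unfolded state with 0 unfolded-like and 1 meaning tenfold more protease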

Sequence | protease stability score
DEDRQDAEYALRLWLETWVTGDEDTLLRLMDPHYRLEIGEYHRHGRENVVTFLRFLVEHLGIKHTHVEVHDLDSQGDKVRAHTTLHNKYNGVELVIDSEIILTKINGRWYFKSMHFG | 1.2
SEEEETAYKVMEEVISAWLTGDEDLFNELADPDVRFELEFNGKKIDIIGRELVSKYWRDVIDHIRVEVVLRDYRMIDGRIETETEIYVEVGDKSHSVETRLHMEVIDGRLRTVKIKVR | 2.22
HELVEEAITMWKEMLVDELTGDEKKTSQNLDPNYKMVIDGQEIHGMEEWSRFLKEIRLHHEDFHVKDARVIDGRVKIDGHIKGTLEINGKRTRTETDVHIILIKINGRWVTHSVHFK | 1.24
DDEEKSRDIAIEIFVHLLRTGDEHEMSKLADPHVKVNINGRELVGMEIFIEWIRRWSKEIRLHDVKVKDVRTQGDKIEVDGREDGIQGDKRKEVETSFFFRKYNGKWFIERMEFR | 1.96
SEDEEKTRKFIELFLYLWVTGDEDSLSELLDPNVRAEVNGKSAHGRDEVSKLSDVFMKELGVKHTRQTTQHRYEIQGDKLKSHLTIDIEVDGQNVKEFVVIVVEKINGRWIIRHIRFE | 1.1
EELERDMDHWIELVIKLRKTGDWRQLAEMVDPNVRVDVNGVQIHGRESIEELLKRLGIDNVEVSLRDKDRQGEKMIVDMELHYNGKRHETKYIALKINGKWIFETITIR | 1.38
SEREEEMKHLHKNLVHNLFTGDEDSHKKLADPNARSVFDGRDFIGMDWWSRYYRHVFERFKGLRLENHHIHFQGNYLHIEARSYIGDKEEIWHFDYFMFDGKVHEVRMEVTKR | 0.813
REDEELVKQVVKDFDHAVETGDEDRLRELLDPDVRISQGDKEFHGREDYELHLRQWRYENHRVHDVRIYGDKARIHGHLHLKIGDKHLEVETILILHKVNGRWRVRHLEIR | 1.83
SEEHERIKRASEEIWRMSETGDFETFFNNFDPNARSDVDGVFNHGREELHRVLLEFWHKLGLTRIDAKVHDDHSFENHLKVDLEERFDGRTVEVRIISRKYDGRWFYTDLIIIRR | 0.169
SEEEQFFRLALELFRQVLQTGDEDRLRELVDPNAKHIINGVELHGRSVLEEFLKRYKNLRIHDVEIKDIRVFDGKLELHGIEDGIIGDKRDERRWHLISEKVDGRWIMHEIQID | 1.7
SEEHEEVERLMRIYFEERLTGDWDRWLSNVDPHTRIIIEIGDKRIELHGWKDFLRFLRFIKNITIHHVHIRHVDVQGDKAHVDEEIDVTIGDKRTKITHEMIIIVVNGRIKHVYERYI | 1.44
HDHDKHLDRLEELMLRWWKTGDWDKILKYADPHTRSDVNGKEYHGRESMVRAFEHVLKMLGIDVVYDQSHHLQGEKAKFHQESRVGDKRVEVIIIITIVDGRVTEFEVEVHHN | 0.722
DDDEEIIERALRLWEKFEQTGDEKRLDEMIDPNVRVNYNGVIHHGRDHLRHFFSRFDHFKRLHIEDSRFFNGKIIIHTRLEGRIGDKERTVNVIIIALKVDGKWFLESWSMS | 0.618
DEHDKLMKDIAKLLLELWKTGDEEIFQHLMDPDTRMDVNGVQLHGMELIVKILRDEIHKIKNVKVLDKRNTVIGDKIHLDVEIVIGDKRIRMKLDVIVVNGRIKVFEIHTE | 1.36
SEEENEAKSWLEYVIRLLETGDEDSLRKLMDPHVRLIQGDKEFHGRELVTDIISEHIRKVKNVRIRIDDIKFIGEKVYLHGTLEYGDKKHELHLITDKVNGRWLLRSIELR | 2.56
SEIHRDVEEFMKRFDRDLETGDEKILEKLVDPDVKTIVNGKIFHGRETFIKLMLTIFKEMRNEHVELQSLEVQGNKAHAETRVRLTIGDWTFYLRTELHLEKYDGRWRFHSVTIE | 1.93
DEEDREKDDLLRRFITAIYTGDERAIKEYLDPHVRTVFNGQEKHGREEVTTLVWQIMRELGIKVIRTHDEREQGNKVELHLELFVGNKRLEINVFAEKVDGKWILRQFIIKVD | 1.2
DDRERESKEAVEFFLHAVDTGDFDRIREMLDPHMRVEIDGQEFHGRERALDLIHKEMFDLGVDRIRIEIHDMELVDGRVEVDVHVDVNGRIIRSEYIMKKIDGRWRIHSIKRR | 1.98

Sequence | protease stability score
DEIERKVIEFWHLLRHALITGDEDLIEDLFDPHVRTDIGDKEHHGREEFRRLWREHGIRIKDVHIEHVTIIGNKVDMEVRFHLEINGRETHKRVILVAQKIDGRWRIREYHVK | 1.88
DEEEEIARRITELWLTYMMTGDEDALIHMADPNVKSILIINGRHVHYHGREYWTKMLRDLGFKHTRIRRVDLQGDYSRLDIEDDFNGVYTRSELRLKVVNGRFHTIEINIH | 1.08
DEEEHLMREALNTFMRTLETGDERQLNELLDPDVRSRVDGQDLHGREHVVRLFEEFRRQARIHHVDVHHMDVIGDWIRVELRVDIRIGDKLYTYKKHIVALKVDGRWFMHRVEIH | 0.773
SEEEELSHTMWRLWVHAVRTGDFRMLEHLADPHVRDVRNINGVTTRLVGREEWRRIVEEEIDKYPNMRVEFEDVRDVGNYVHAHTKSHYDGKTVDTRVELLVVDGRISDFKLHIE | 1.08
SEREEYSHRAVELLIHLLRTGDEDMISKLADPNTYLDWNGREEVGMEDWLRLLREMRIHDVIIHTIEIQGDKIHMDVIIDGEFDGRRTEMRVHLILLKVNGRWVLTEVKIH | 1.03
SEEEKEAHDWMEVWLELFHTGDEDMLEHMADPHTRIHVDGRKFHGRENYVRLVRHMRVHHFIERRVRIINGRIHIEGEARVNINGQEIDNHVQIHLNLVDGRLKTEHIKVK | 0.927
DEHTHEAHKFLREYWSNLQTGDEEKIINLVDPRVRMIINGKELHGREEFSKALHDEYRRMGMTIQTFTLQHLEIQGEKVHADVEIITHYDGRHTSIHLHLIVQKINGRWLMREVEIR | 1.32
REEEHHLEKLARHIVHAILTGDERYLEKLMDPNTRVEIIDGEYRIERHGMHNIVHLLLEIRIHHFEIKRITTYNGQVDIDGEIDGEYGDKRDNRHVEIRFHFVNGRTKSFKVTWR | 1.31
SKDEDDMRRWAEILIQDFITGDEDRMNHLLDPNTRVQVNGVQDHGMEALEKLFEILGFKHIDIKDLHIKLIGDKVEQDVVLRLNVNGKERKVKVHNFAEKVDGRWFVESITVHVR | 1.02
SEDEHSFKMAIDLWEEVSRTGDEKDLRELIDPHVRVEYGDKHHVGWDRFIKVFHEIRFHHIKVRDHRIIGDKLHMNIEVHGEYNGQRVTIETHVVMRKIDGRWFTETMQID | 1.22
DEVDHMIELVTRLFIHAVLTGDEKILRDLMDPHVRVHVDGKKLHGWKEFIDWLREELERYDHFHFRVHHYNVVNGRVHADGNLDVHFNGRKHHITTDLRLIIWDGRIKTVDIRHH | 1.75
SEDEHNAEIAIKIWLDTIRTGDWHKIENMADPNTRIDIGDKHFHGREEIVRLYIELVEKFPGMTFHVREVDVVGDKVDIHSHVVVGDKTFNLTIIITKVNGRWLLKKVRMESH | 2.67
HELDELTERTVKLFRDSSYTGDEDTLEDLADPNYRFVIDGKILMGREWVTRSLREWRVEDFRIHSVDLQGDKAHVDITVKGKFNGRFRTTRQEMVMMKVDGVWYFHSLTIR | 0.521
DEHEEEAHKFVELKRRIWKTGDERLKSELADPNVKITFNGKELHGMEELIKVNREMGIKHVQIEDIDFQGNKVMVFGRSNIGDFNNRVEIIAEKYNGKWSLSEVRIH | 0.322
DEEEEMAKKILDDLTHLLETGDEEVFRHLADPNVKVDELVNGRKIHRHGRQDWREIFKEMRLRHIHIRRVHVQGDKLHNDIEVDGDFNGRSHRDRTELILVIVDGRLRTIEIHVN | 1.18
HENEEAAEHIFELFLDSLRTGDPDVVERLLDPHVKLDINGVEFHGREEAVHILMEEWKRLGIDHFEIKRIELRVYNGVVHIEIDSRTQVNGQKHHTKYRIIVIKINGRWHVNLLYIYIE | 2.12
DERERDARIYFHLLLHVIMTGNEEDLERFMDPHARIQIGDKMVHGRENVYHELLRIAREMRLHHSHIHEIRVIDGRVILKGHLDLEVGDKRELVDVEWIVIKVNGKWIFHSVHFR | 2.53
DEDEEEAEKFFWTWVESVLTGDEDMLHHLVDPNVRYSQGEKQIHGRESVVKFMSEARVDSIRIKSMHIFNGRINIDSEIDGVINGKRTRIKVHLYILKVDGRWLMQSIEVK | 2.03
